In paper PMC7431413, “Selective inhibition of STAT3 signaling using monobodies targeting the coiled-coil and N-terminal domains” (Nature Communications, 2020) one finds Kd data, which are given here for 1 molecule.

For this assay, the target named is T1, recombinant core fragment (CF) of STAT3 (human, UniProt P40763 127-722).
T1 construct: STAT3, human, core fragment (CC, DBD and SH2 domains), a.a; For the crystal the methods say 'TEV cleaved-MS3-6 and STAT3-CF'; it is not clear whether the tags of STAT3-CF were cut too; also called STAT3-CF; source: E. coli BL21 (DE3), pHBT vector, purified (Ni-NTA, SEC)
Briefly: fluorescence polarisation; fluorescent gp130 pY-peptide and recombinant STAT3-CF (Supplementary Fig. 3a); TBS (50 mM Tris pH 7.5, 150 mM NaCl). As to conditions: both partners purified. In general terms: Polarisation of emitted light reports the rotation of a fluorescent probe.

Where no end group is shown, it is not given here. [ ]: non-standard residue; d: D form. pY = N[C@@H](Cc1ccc(OP(=O)(O)O)cc1)C(=O)O

T1 sequence (P40763 127-722): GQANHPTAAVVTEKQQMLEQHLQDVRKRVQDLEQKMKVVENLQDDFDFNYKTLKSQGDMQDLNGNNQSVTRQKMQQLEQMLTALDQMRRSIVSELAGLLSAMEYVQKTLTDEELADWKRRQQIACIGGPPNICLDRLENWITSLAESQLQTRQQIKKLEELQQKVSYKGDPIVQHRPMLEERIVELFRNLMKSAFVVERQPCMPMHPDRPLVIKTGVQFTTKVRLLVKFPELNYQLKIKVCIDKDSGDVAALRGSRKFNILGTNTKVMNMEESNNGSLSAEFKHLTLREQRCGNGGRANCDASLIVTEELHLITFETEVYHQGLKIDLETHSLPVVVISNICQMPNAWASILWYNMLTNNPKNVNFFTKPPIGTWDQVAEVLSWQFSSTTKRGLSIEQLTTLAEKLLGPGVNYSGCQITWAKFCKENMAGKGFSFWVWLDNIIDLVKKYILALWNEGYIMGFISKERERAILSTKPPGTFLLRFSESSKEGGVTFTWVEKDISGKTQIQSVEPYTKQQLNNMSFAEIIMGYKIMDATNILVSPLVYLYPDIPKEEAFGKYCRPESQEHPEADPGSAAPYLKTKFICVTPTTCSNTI

B1: fluorescent pY-peptide encompassing the pY905 docking site of gp130 (peptide)
peptide: GMPKS[pY]LPQTVR-NH2
modifications: not fully specified (N-terminus)
notes: gp130, cytosolic tail around the Y905 docking site; also called gp130 pY-peptide; phospho-gp130 peptide; source: synthetic peptide
B1: the Kd is 930 nM.

As usually defined, the Kd is a measure of binding affinity in units of concentration.
